Key:
Test in all cases: Km for hydrolysis of fluorogenic substrate Arg2-2NA
[1] = substrate: N=C(N)NCCC[C@H](NC(=O)[C@@H](N)CCCNC(=N)N)C(=O)Nc1ccc2ccccc2c1; assay type: biochemical; conditions: other: pH 7.4 (20 mM Tris–HCl buffer), 25 °C, initial reaction rates
Experimental: (§1) The Km values for hydrolysis of fluorogenic substrate Arg2-2NA were determined at pH 7.4 (20 mM Tris–HCl buffer) and at 25 °C, from the initial reaction rates as previously described.[26]

[2] = substrate: N=C(N)NCCC[C@H](NC(=O)[C@@H](N)CCCNC(=N)N)C(=O)Nc1ccc2ccccc2c1; assay type: biochemical, Bacteroides thetaiotaomicron; conditions: other: pH 7.4 (20 mM Tris–HCl buffer), 25 °C, initial reaction rates, B. thetaiotaomicron DPP III
Experimental: as §1

[3] = substrate: N=C(N)NCCC[C@H](NC(=O)[C@@H](N)CCCNC(=N)N)C(=O)Nc1ccc2ccccc2c1; assay type: biochemical, yeast (Saccharomyces cerevisiae); conditions: other: pH 7.4 (20 mM Tris–HCl buffer), 25 °C, initial reaction rates, yeast DPP III
Experimental: as §1

B1: Caldithrix abyssi DPP III (Caldithrix abyssi DSM 13497) (protein)
chain: MKRILLVLLTLVFLGAIACQKKEENKTEMVKLKRMIAQFAPTEIKYDHSLLDERKQKVVENLYRAAKIMDEIFLDQVYSKNFEIREQLRASSDPLDQLRLEYFTIMFGPFDRLNHDKPFIGNTPKPKGANFYPPDMTREEFENWLKAHPEDEAAFTSEFTVIRRQDGKLVAIPYSEYYKEYLTRAADYLKKAAEFADNPSLKKYLQLRAEAFLNNDYYESDLAWMDLNDHTIEVVIGPYEVYEDKLFNYKAAFEAFITLRDPVESAKLKKFVGYLDEMEKNLPIPDAYKNFNRGSESPMVVVQEVFSAGDTKAGVQTLAFNLPNDERVREAKGSKKVMLKNIHEAKFDKLLKPIAEKVLFAEQLPLVTFEGFFNHTLMHEISHGLGPGKIVLNGRQTEVKKELKETYSSIEECKADVLGMYNNLFMIEKGVYPPEFEKQIYVTFLAGIFRTIRFGINEAHGAGNAVIFNYLLEKGAYQFDPAAHRVKVNFEKIKDGVRDLANKVLTIQAQGDYMAAKNLLETYAVESEPIMIMRARLQELPVDIKPIFQIEKELGNSN
Km ([1]; Caldithrix abyssi DPP III): 15.9 µM

B2: Porphyromonas gingivalis DPP III (Porphyromonas gingivalis W83) (protein)
chain: MTKETTQHRSGERIARFADIEVLSYRADLFGTLTPKQRMLCYHLSEAALRGRDITTIQNCRYNLWVRSLMERIYTHLSKSERTDDFALLEEYLFCIWFANGIHHHYSGAKFIARFSPGFLRAALREAGVELEPEEQVLLERVLYDTDFLPKQTEQSGEEDIIKASSVNFYAPGITRAEAESHYKNLIEALPENEKSCPPSFGLNTRLIRSTSGELKDEVCCIDGLYGPAIEAVVASLEAAIPYTENEEQAACIRLLCDYYRTGDIRLYDRFCIRWVENNRTRIDFINGFTEVYADPIGIHGSWEGLVHMQDEEAGRRTRIISEHAGWFEAHSPIDARFRKKNPHGISATVVNVLTIAGDSYPATPIGINLPNADWIRAEHGSKSVTIDNITDAYNHAARGTGLYEEFIPDEEVRRHVELHADLTDSLHTDLHECLGHGSGQLLPGVPGDALGEHASTLEETRADLFALYFLADPKMIELGLLTDPDAYKANYYKYMLNGLMTQLVRIKRGEEIEEAHMRNRALIARYVLEHAERPGAMSLVCEEGKTALVIKDYEAVRAIIAGLLTEVQRIKSEGDYTAGKALVERYAVHVDPLLHEEVLTRYAKLDIAPYKGFVNPRLRPVYNSEGRLTDATIEYTEGYAEQMLRYSAEYSFLPTDSPLLQEARRLRSHLRRAMDGVLSASMREKGLHYGINFGVTREHLLRLARTADASAPLADYLWRRDVRETKILATMIFPAEELTHEQATRLLREADNVELREQLTANLLERMPEAIRSIGRWIESKETTPDMMTGVLTLAARLFTRGIFPEDVPAEKLLTLAILHLSDEEQKAELRRASALLLKRYGRGSAERTKKVLCLLPESSQDTAPVLYELCEDIRFELDFYPKDE
Km ([1]; Porphyromonas gingivalis DPP III): 0.3 µM

B3: human DPP III (Homo sapiens) (protein)
chain: ADTQYILPNDIGVSSLDCREAFRLLSPTERLYAYHLSRAAWYGGLAVLLQTSPEAPYIYALLSRLFRAQDPDQLRQHALAEGLTEEEYQAFLVYAAGVYSNMGNYKSFGDTKFVPNLPKEKLERVILGSEAAQQHPEEVRGLWQTCGELMFSLEPRLRHLGLGKEGITTYFSGNCTMEDAKLAQDFLDSQNLSAYNTRLFKEVDGEGKPYYEVRLASVLGSEPSLDSEVTSKLKSYEFRGSPFQVTRGDYAPILQKVVEQLEKAKAYAANSHQGQMLAQYIESFTQGSIEAHKRGSRFWIQDKGPIVESYIGFIESYRDPFGSRGEFEGFVAVVNKAMSAKFERLVASAEQLLKELPWPPTFEKDKFLTPDFTSLDVLTFAGSGIPAGINIPNYDDLRQTEGFKNVSLGNVLAVAYATQREKLTFLEEDDKDLYILWKGPSFDVQVGLHELLGHGSGKLFVQDEKGAFNFDQETVINPETGEQIQSWYRSGETWDSKFSTIASSYEECRAESVGLYLCLHPQVLEIFGFEGADAEDVIYVNWLNMVRAGLLALEFYTPEAFNWRQAHMQARFVILRVLLEAGEGLVTITPTTGSDGRPDARVRLDRSKIRSVGKPALERFLRRLQVLKSTGDVAGGRALYEGYATVTDAPPECFLTLRDTVLLRKESRKLIVQPNTRLEGSDVQLLEYEASAAGLIRSFSERFPEDGPELEEILTQLATADARFWKGPSEAPSGQA
Km ([1]; human DPP III): 6.0 µM

B4: B. thetaiotaomicron DPP III (Bacteroides thetaiotaomicron VPI-5482) (protein)
chain: MAVTATILASCGGAKTTTAEADKFDYTVEQFADLQILRYKVPEFETLTLKQKELVYYLTQAALEGRDILFDQNGKYNLRIRRMLEAVYTNYKGDKSAPDFKNMEVYLKRVWFSNGIHHHYGMEKFVPGFSQDFLKQAVLGTDAQLLPLSEGQTAEQLCDELFPVMFDPAILAKRVNQADGEDLVLTSACNYYDGVTQQEAESFYGAMKDPKDETPVSYGLNSRLVKEDGKIQEKVWKVGGLYTQAIEKIVYWLKKAETVAENDAQKAVISKLIQFYETGSLKDFDEYAILWVKDLDSRIDFVNGFTESYGDPLGVKASWESLVNFKDLDATHRTEIISSNAQWFEDHSPVDKSFKKEKVKGVSAKVITAAILAGDLYPATAIGINLPNANWIRAHHGSKSVTIGNITDAYNKAAHGNGFNEEFVCNDEERQRIDQYGDLTGELHTDLHECLGHGSGKLLPGVDPDALKAYGSTIEEARADLFGLYYVADPKLVELKLVPDAEAYKAEYYTFLMNGLMTQLVRIEPGNNIEEAHMRNRQLIARWVFEKGAPDKVVEMVKKDGKTYVVVNDYEKVRQLFGELLAEIQRIKSTGDFEGARTLVENYAVKVDPALHAEVLARYKKLNLAPYKGFINPVYELVTDKDGNITDVTVSYNEDYVEQMLRYSKDYSPLPSVNN
Km [2]: 0.8 µM

B5: Physcomitrella patens DPP III (Physcomitrium patens) (protein)
chain: MEGFQEEFSLGECLDVLTAAGLRTGDVKKRHLVHADGDYHRAVHVWLFVESTQELVLQKRADCKDSWPGLWDISSAGHISAGDTSLLTARRELQEELGITLPADAFEFLFDYLQECVINGGKYINNEYNDVYLVTLVDHIPVEAFTLQETEVSAVKYMKWQDYEDAVRKEDSSYVPCDVDGGYSALFSALRRRYEVDTSAKLEELQMHINRYVPVEIHGETTGLSKGDLLALSDTIRAAKLLDRIFLEQEWATNPALKDSLQAASGKSELDRLKFAYYLINKSPWSILDENDAFLTTADSAIQIAEGAVDESVTWGGKVRYRAAFPVEKAPGANFYPVDMDKEEFQAWKDGLDKGQQADATSFFTTIRRSGDIHDADGAKVHDLKIVPYSKEYATILKEASYLLHKAGDSAENPSLKRLLKAKADAFLSNDYYESDIAWMELDSPLDVTIGPYETYEDGLFGYKATFEAFIGIRDDEATQRLKLFSHNLQEMEDNLPMDDEYKSKTVTFSPIRVIQLLYNSGDVKGPQTVAFNLPNDDRIVKERGTAMVMLKNISQAKFDYILLPIANVCVEASQRGAVDFDSFFTHTICHECCHGIGPHNIVTPDGRASTVRLELQEVYSAIEEAKADIVGLWALHFLVDKGLLPRSLENTMYVSFLAGCFRSIRFGLEEAHGKGQALQFNFILEKGGFSYHPDGTFSVDYTKVRQCVEDLSRLILTIEAKGDKAGAEALLAKYAALTPQLQQSFDALQDVQVPVDIFPTFKLLDDIKL
Km ([1]; Physcomitrella patens DPP III): 23.8 µM

B6: yeast DPP III (Saccharomyces cerevisiae S288C) (protein)
chain: MSHFFADHDAPLSMLSVKTEYFPQLTDKEQKYAHFMSKASHAGSRVVMRQVSHESEPIFDLILAIHSKLNGKYPEDDITQKQQTGLYLEYVSQFLSNLGNFKSFGDTKFIPRCEVKFFKQLLELAKINPCSSPLTLSPVDVNHEFTSHHLFSTINELIDIGIYHVEEKAALLGFPSQGYTSAYYLGLPVTPEDMALLKEQLFAELAILPENTRINKVGENSFQIWVASENVKNQITETYPSGQITLSNAVTKVEFIFGDHSREMRLVASYLKEAQKFAANDTQKAMLQEYINHFVTGSSQAHKEAQKLWVKDISPVIETNIGFIETYREPSGIIGEFESLVAIQNKERTAKFSSLVNNAEEFISLLPWSKDYEKPIFNPPDFTSLEVLTFTGSGIPAGINIPNYDDVRLKIGFKNVSLGNILSAAAKSSSKHPPSFISQEDRPIFEKYQSDSFEVQVGIHELLGHGSGKLLTEFTDGFNFDKENPPLGLDGKPVSTYYKVGETWGSKFGQLAGPFEECRAEVIAMFLLTNKKILDIFGFHDVESQDKVIYAGYLQMARAGLLALEYWNPKTGKWGQPHMQARFSIMKTFMKHSTDKNFLKLEMNSTNDDFAIKLDKSLIKTAGHECVKDYLKHLHVYKCSGDVEQGSKYFIDRSTVTPDLASLRDIVLSKRLPRRQFIQSNSYIDDNNKVTLKEYDETPQGMLQSFLDREL
Km [3]: 12 µM

Source: PMC9079729, “Conservation of the conformational dynamics and ligand binding within M49 enzyme family” (RSC Advances, 2018)
